For data set [1], the target named is T1, FtsZ C-terminal tail peptide C-terminal tail peptide (Escherichia coli, UniProt P0A9A6).
T1 chain: KEPDYLDIPAFLRKQAD
In words: ITC.

Data set [2] concerns the molecule itself. In words: analytical ultracentrifugation (sedimentation velocity).

B1: ZapC (protein)
chain: not shown
Broadly, the Kd is a measure of binding affinity in units of concentration. Read a low Kd as higher affinity. With B1, the values for the Kd in data set [1] and in data set [2] were 32 µM and about 30 µM, respectively.

The values are drawn from PMC4686002 (2015).
